Consider one substance from publication PMC3964903.

The target of the assay is calcium/calmodulin-dependent protein kinase II (CaMKII) (mouse (endogenous in hippocampal slices)) (UniProt P11798).
UniProt P11798, sequence (P11798 whole entry): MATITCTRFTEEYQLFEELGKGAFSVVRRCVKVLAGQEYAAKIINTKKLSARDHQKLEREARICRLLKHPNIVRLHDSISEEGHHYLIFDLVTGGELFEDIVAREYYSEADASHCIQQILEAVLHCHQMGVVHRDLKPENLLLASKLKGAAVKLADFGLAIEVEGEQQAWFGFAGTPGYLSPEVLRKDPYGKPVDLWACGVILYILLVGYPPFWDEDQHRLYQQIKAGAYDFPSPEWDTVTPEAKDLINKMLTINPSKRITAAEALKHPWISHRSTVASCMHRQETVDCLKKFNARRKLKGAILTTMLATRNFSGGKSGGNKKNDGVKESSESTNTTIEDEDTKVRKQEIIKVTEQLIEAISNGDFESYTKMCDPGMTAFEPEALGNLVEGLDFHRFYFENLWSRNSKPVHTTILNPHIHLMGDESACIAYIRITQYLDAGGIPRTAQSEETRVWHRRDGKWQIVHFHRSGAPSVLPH

“NMDA receptor (NMDAR) (from UniProt P35438 19-938; Q01097 27-1482) (complex)”: the CaMKII relative activity (Cyclex CaMKII assay kit) after 10 min OGD with Tat-GluN2B, compared with control (relative to control) is 0.97 and the amplitude of NMDAR-mediated i-LTP (NMDA fEPSPs) in hippocampal slices exposed to OGD for 10 min with Tat-GluN2B, compared with OGD alone (relative to OGD) was 0.73.
